Test results: article PMC10786891, “Massively parallel profiling of RNA-targeting CRISPR-Cas13d”

Molecular target: T1, EsCas13d, nuclease-dead (Eubacterium siraeum, UniProt B0MS50, R295A;H300A;R849A;H854A)
T1 sequence: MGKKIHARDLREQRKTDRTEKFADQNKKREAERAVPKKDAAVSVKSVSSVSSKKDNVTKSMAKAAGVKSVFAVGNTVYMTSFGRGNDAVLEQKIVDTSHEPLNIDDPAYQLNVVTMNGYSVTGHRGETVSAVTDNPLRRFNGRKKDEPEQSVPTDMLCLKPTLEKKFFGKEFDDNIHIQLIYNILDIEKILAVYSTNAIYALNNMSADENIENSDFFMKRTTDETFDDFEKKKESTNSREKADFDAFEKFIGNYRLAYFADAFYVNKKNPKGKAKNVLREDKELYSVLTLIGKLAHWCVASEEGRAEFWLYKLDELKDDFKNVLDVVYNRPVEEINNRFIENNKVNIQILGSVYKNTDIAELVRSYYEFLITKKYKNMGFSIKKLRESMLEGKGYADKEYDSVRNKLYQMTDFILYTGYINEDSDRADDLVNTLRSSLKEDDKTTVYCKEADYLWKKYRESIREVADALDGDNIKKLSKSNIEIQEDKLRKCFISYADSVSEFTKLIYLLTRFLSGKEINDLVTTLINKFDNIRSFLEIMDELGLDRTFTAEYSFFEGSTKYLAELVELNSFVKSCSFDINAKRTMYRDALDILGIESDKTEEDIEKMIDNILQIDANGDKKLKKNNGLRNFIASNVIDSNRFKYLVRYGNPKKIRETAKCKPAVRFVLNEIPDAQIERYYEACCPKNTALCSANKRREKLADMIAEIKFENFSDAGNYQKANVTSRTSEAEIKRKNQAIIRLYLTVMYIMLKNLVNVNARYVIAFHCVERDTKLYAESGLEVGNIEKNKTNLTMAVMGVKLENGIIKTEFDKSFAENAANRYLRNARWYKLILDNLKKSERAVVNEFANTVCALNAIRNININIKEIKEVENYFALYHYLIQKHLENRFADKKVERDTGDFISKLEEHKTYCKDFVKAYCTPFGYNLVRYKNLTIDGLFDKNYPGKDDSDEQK
Test: crRNA (strand 1, pre-loaded); Mg2+; 40 mM Tris-HCl pH 7.5, 150 mM NaCl, 6 mM MgCl2, 1 mM DTT, 0.1% Tween-20, 0.2 mg/ml BSA; 25 C; 10 min per concentration, then washed
Conditions: tags: His6-TwinStrep-SUMO cleaved; N-terminal SNAP kept (SNAP-Surface 488); label: 3' end held by stalled T7 RNA polymerase

Row | Binder | Kd [nM]
1 | target 2 MT 5'PFS GCG 3'PFS UGU (mixed) RNA 1: CACCCGUGCAAAAUUGCAGGGGUCUAAAACCUUCUCCAAAUUGUUUCAUCCU RNA 2: GGGAAUGGAUCCACAUCUACGAAUUCGCGAGGAUGAAACAAUUUGGAGAAGUGUAGAUCGGAAGAGCACACGU | 17.4 ± 2.1
2 | target 2 MT 5'PFS GGC 3'PFS UGC (mixed) RNA 1: CACCCGUGCAAAAUUGCAGGGGUCUAAAACCUUCUCCAAAUUGUUUCAUCCU RNA 2: GGGAAUGGAUCCACAUCUACGAAUUCGGCAGGAUGAAACAAUUUGGAGAAGUGCAGAUCGGAAGAGCACACGU | 13.2 ± 1.3
3 | target 2 MT 5'PFS GUA 3'PFS AGU (mixed) RNA 1: CACCCGUGCAAAAUUGCAGGGGUCUAAAACCUUCUCCAAAUUGUUUCAUCCU RNA 2: GGGAAUGGAUCCACAUCUACGAAUUCGUAAGGAUGAAACAAUUUGGAGAAGAGUAGAUCGGAAGAGCACACGU | 12.4 ± 1.4
4 | target 2 MT 5'PFS CGC 3'PFS UAC (mixed) RNA 1: CACCCGUGCAAAAUUGCAGGGGUCUAAAACCUUCUCCAAAUUGUUUCAUCCU RNA 2: GGGAAUGGAUCCACAUCUACGAAUUCCGCAGGAUGAAACAAUUUGGAGAAGUACAGAUCGGAAGAGCACACGU | 6.3 ± 0.8
5 | target 2 MT 5'PFS CGC 3'PFS UAA (mixed) RNA 1: CACCCGUGCAAAAUUGCAGGGGUCUAAAACCUUCUCCAAAUUGUUUCAUCCU RNA 2: GGGAAUGGAUCCACAUCUACGAAUUCCGCAGGAUGAAACAAUUUGGAGAAGUAAAGAUCGGAAGAGCACACGU | 3.9 ± 0.6
6 | non-target control (mixed) RNA 1: CACCCGUGCAAAAAUGCAGGGGUCUAAAACUGAGCGGAUAACCUCUCUAUGG RNA 2: GGGAAUGGAUCCACAUCUACGAAUUCGUUAGCUAGAAGGGGAAGUUGGUUAUGGAGAUCGGAAGAGCACACGU | > 100
7 | target 1 C6G,U11C (mixed) RNA 1: CACCCGUGCAAAAAUGCAGGGGUCUAAAACUGAGCGGAUAACCUCUCUAUGG RNA 2: GGGAAUGGAUCCACAUCUACGAAUUCGUACCAUAGAGAGGCUAUCGGCUCACCGAGAUCGGAAGAGCACACGU | 9.8 ± 0.8
8 | target 1 insU 3' of 6,insG 3' of 3 (mixed) RNA 1: CACCCGUGCAAAAAUGCAGGGGUCUAAAACUGAGCGGAUAACCUCUCUAUGG RNA 2: GGGAAUGGAUCCACAUCUACGAAUUCGUACCAUAGAGAGGUUAUCCUGCUGCACCGAGAUCGGAAGAGCACACGU | 7.9 ± 0.4
9 | target 1 insC 3' of 12,insA 3' of 11 (mixed) RNA 1: CACCCGUGCAAAAAUGCAGGGGUCUAAAACUGAGCGGAUAACCUCUCUAUGG RNA 2: GGGAAUGGAUCCACAUCUACGAAUUCGUACCAUAGAGAGGCUAUAUCCGCUCACCGAGAUCGGAAGAGCACACGU | 15 ± 1.2
10 | target 1 insG 3' of 11,insA 3' of 11 (mixed) RNA 1: CACCCGUGCAAAAAUGCAGGGGUCUAAAACUGAGCGGAUAACCUCUCUAUGG RNA 2: GGGAAUGGAUCCACAUCUACGAAUUCGUACCAUAGAGAGGUGAUAUCCGCUCACCGAGAUCGGAAGAGCACACGU | 15.2 ± 0.8
11 | target 1 insG 3' of 22,insA 3' of 8 (mixed) RNA 1: CACCCGUGCAAAAAUGCAGGGGUCUAAAACUGAGCGGAUAACCUCUCUAUGG RNA 2: GGGAAUGGAUCCACAUCUACGAAUUCGUACGCAUAGAGAGGUUAUACCGCUCACCGAGAUCGGAAGAGCACACGU | 35.9 ± 2.6
12 | target 1 U11A (mixed) RNA 1: CACCCGUGCAAAAAUGCAGGGGUCUAAAACUGAGCGGAUAACCUCUCUAUGG RNA 2: GGGAAUGGAUCCACAUCUACGAAUUCGUACCAUAGAGAGGAUAUCCGCUCACCGAGAUCGGAAGAGCACACGU | 30.7 ± 1.9
13 | target 1 insA 3' of 15,insC 3' of 8 (mixed) RNA 1: CACCCGUGCAAAAAUGCAGGGGUCUAAAACUGAGCGGAUAACCUCUCUAUGG RNA 2: GGGAAUGGAUCCACAUCUACGAAUUCGUACCAUAGAGAAGGUUAUCCCGCUCACCGAGAUCGGAAGAGCACACGU | 15.2 ± 1.8
14 | target 1 A1U,A9U (mixed) RNA 1: CACCCGUGCAAAAAUGCAGGGGUCUAAAACUGAGCGGAUAACCUCUCUAUGG RNA 2: GGGAAUGGAUCCACAUCUACGAAUUCGUACCAUAGAGAGGUUUUCCGCUCUCCGAGAUCGGAAGAGCACACGU | 7.8 ± 0.5
15 | target 1 U8A,C22U (mixed) RNA 1: CACCCGUGCAAAAAUGCAGGGGUCUAAAACUGAGCGGAUAACCUCUCUAUGG RNA 2: GGGAAUGGAUCCACAUCUACGAAUUCGUAUCAUAGAGAGGUUAACCGCUCACCGAGAUCGGAAGAGCACACGU | 35 ± 5
16 | target 1 A9U (mixed) RNA 1: CACCCGUGCAAAAAUGCAGGGGUCUAAAACUGAGCGGAUAACCUCUCUAUGG RNA 2: GGGAAUGGAUCCACAUCUACGAAUUCGUACCAUAGAGAGGUUUUCCGCUCACCGAGAUCGGAAGAGCACACGU | 8.9 ± 0.7
17 | target 1 G5U,G12C (mixed) RNA 1: CACCCGUGCAAAAAUGCAGGGGUCUAAAACUGAGCGGAUAACCUCUCUAUGG RNA 2: GGGAAUGGAUCCACAUCUACGAAUUCGUACCAUAGAGAGCUUAUCCUCUCACCGAGAUCGGAAGAGCACACGU | 41 ± 4
18 | target 1 C4U,U8C (mixed) RNA 1: CACCCGUGCAAAAAUGCAGGGGUCUAAAACUGAGCGGAUAACCUCUCUAUGG RNA 2: GGGAAUGGAUCCACAUCUACGAAUUCGUACCAUAGAGAGGUUACCCGUUCACCGAGAUCGGAAGAGCACACGU | 30 ± 4
19 | target 1 C2U,C4A (mixed) RNA 1: CACCCGUGCAAAAAUGCAGGGGUCUAAAACUGAGCGGAUAACCUCUCUAUGG RNA 2: GGGAAUGGAUCCACAUCUACGAAUUCGUACCAUAGAGAGGUUAUCCGAUUACCGAGAUCGGAAGAGCACACGU | 6.7 ± 0.4
20 | target 1 A1G,A9U (mixed) RNA 1: CACCCGUGCAAAAAUGCAGGGGUCUAAAACUGAGCGGAUAACCUCUCUAUGG RNA 2: GGGAAUGGAUCCACAUCUACGAAUUCGUACCAUAGAGAGGUUUUCCGCUCGCCGAGAUCGGAAGAGCACACGU | 8.1 ± 0.6
21 | target 1 U3A,U10G (mixed) RNA 1: CACCCGUGCAAAAAUGCAGGGGUCUAAAACUGAGCGGAUAACCUCUCUAUGG RNA 2: GGGAAUGGAUCCACAUCUACGAAUUCGUACCAUAGAGAGGUGAUCCGCACACCGAGAUCGGAAGAGCACACGU | 61 ± 16
22 | target 1 insC 3' of 9,insA 3' of 7 (mixed) RNA 1: CACCCGUGCAAAAAUGCAGGGGUCUAAAACUGAGCGGAUAACCUCUCUAUGG RNA 2: GGGAAUGGAUCCACAUCUACGAAUUCGUACCAUAGAGAGGUUACUCACGCUCACCGAGAUCGGAAGAGCACACGU | 10.4 ± 0.4
23 | target 1 insA 3' of 13,insC 3' of 12 (mixed) RNA 1: CACCCGUGCAAAAAUGCAGGGGUCUAAAACUGAGCGGAUAACCUCUCUAUGG RNA 2: GGGAAUGGAUCCACAUCUACGAAUUCGUACCAUAGAGAGAGCUUAUCCGCUCACCGAGAUCGGAAGAGCACACGU | 6.3 ± 0.9
24 | target 1 insC 3' of 17,insG 3' of 14 (mixed) RNA 1: CACCCGUGCAAAAAUGCAGGGGUCUAAAACUGAGCGGAUAACCUCUCUAUGG RNA 2: GGGAAUGGAUCCACAUCUACGAAUUCGUACCAUAGCAGAGGGUUAUCCGCUCACCGAGAUCGGAAGAGCACACGU | 38 ± 4
25 | target 1 insG 3' of 9,insA 3' of 5 (mixed) RNA 1: CACCCGUGCAAAAAUGCAGGGGUCUAAAACUGAGCGGAUAACCUCUCUAUGG RNA 2: GGGAAUGGAUCCACAUCUACGAAUUCGUACCAUAGAGAGGUUAGUCCGACUCACCGAGAUCGGAAGAGCACACGU | 10.3 ± 1
26 | target 1 A9U,G12A (mixed) RNA 1: CACCCGUGCAAAAAUGCAGGGGUCUAAAACUGAGCGGAUAACCUCUCUAUGG RNA 2: GGGAAUGGAUCCACAUCUACGAAUUCGUACCAUAGAGAGAUUUUCCGCUCACCGAGAUCGGAAGAGCACACGU | 7.7 ± 0.4
27 | target 1 A9C,U11C (mixed) RNA 1: CACCCGUGCAAAAAUGCAGGGGUCUAAAACUGAGCGGAUAACCUCUCUAUGG RNA 2: GGGAAUGGAUCCACAUCUACGAAUUCGUACCAUAGAGAGGCUCUCCGCUCACCGAGAUCGGAAGAGCACACGU | 20 ± 1.7
28 | target 1 insC 3' of 22,insC 3' of 10 (mixed) RNA 1: CACCCGUGCAAAAAUGCAGGGGUCUAAAACUGAGCGGAUAACCUCUCUAUGG RNA 2: GGGAAUGGAUCCACAUCUACGAAUUCGUACCCAUAGAGAGGUUCAUCCGCUCACCGAGAUCGGAAGAGCACACGU | 41 ± 10
